Measured values taken from US20140271457A1 (AbbVie / Abbott, published 2014).

target: Recombinant Human IL-13 (human, UniProt P35225 35-146, limits assumed); experiment: Biacore SPR
Protocol: The BIACORE assay (GE, Healthcare Piscataway, N.J.) determined the affinity of antibodies or DVD-Ig with kinetic measurements of on-rate and off-rate constants. Binding of antibodies or DVD-Ig proteins to a target antigen (for example, a purified recombinant target antigen) was determined by surface plasmon resonance-based measurements with a Biacore T200 using running HBS-EP+buffer from GE Healthcare at 25° C. All chemicals were obtained from GE Healthcare or otherwise from a different source as described in the text. For example, approximately 5000 RU of goat anti-mouse IgG, (Fcγ), fragment specific polyclonal antibody (Pierce Biotechnology Inc, Rockford, Ill.) diluted in 10 mM sodium acetate (pH 4.5) was directly immobilized across a CM5 research grade biosensor chip using a standard amine coupling kit according to manufacturer's instructions. Unreacted moieties on the biosensor surface were blocked with ethanolamine. Modified carboxymethyl dextran surface in flowcell 1 was used as a reference surface. Rate constants were derived by making kinetic binding measurements at different antigen concentrations ranging from 0.8-100 nM. Binding was recorded as a function of time and kinetic rate constants were calculated. In this assay, association rate was evaluated for 5 min and dissociation was monitored for 10 min. For kinetic screening analysis, rate equations derived from the 1:1 binding model were fitted simultaneously to association and dissociation phases of all injections (using global fit analysis with Rmax fit locally to account for capture variations) with the use of Biaevaluation software. Purified antibodies or DVD-Ig proteins were diluted in HEPES-buffered saline for capture across goat anti-mouse IgG specific reaction surfaces. Antibodies or DVD-Ig proteins to be captured as a ligand were injected over reaction matrices at a flow rate of 5 μl/minute. The association and dissociation rate constants, kₒₙ (M⁻¹ s⁻¹) and koff (s⁻¹) were determined under a continuous flow rate of 50 μl/minute. Rate constants were derived by making kinetic binding measurements at different antigen concentrations ranging from 0.8-100 nM. Binding was recorded as a function of time and kinetic rate constants were calculated. In this assay, association rate was evaluated for 5 min and dissociation was monitored for 10 min.

Chain of Recombinant Human IL-13 (P35225 35-146 limits assumed): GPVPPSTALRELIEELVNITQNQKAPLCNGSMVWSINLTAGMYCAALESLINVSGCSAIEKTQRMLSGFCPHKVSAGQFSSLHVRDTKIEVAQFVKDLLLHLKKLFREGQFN

Kd	koff	kon	Binder
0.087 nM	4.8e-05 s⁻¹	550000 M⁻¹ s⁻¹	DVD3176 (bispecific antibody, IgG1, DVD-Ig; wt hIgG1 + kappa constants) VH: EVQLVQSGAEVKKPGASVKVSCKASGYTFNNYGIIWVRQAPGQGLEWMGWINTYTGKPTYAQKFQGRVTMTTDTSTSTAYMELSSLRSEDTAVYYCARKLFNTVAVTDNAMDYWGQGTTVTVSSASTKGPEVQLVQSGAEVKKPGASVKVSCKASGYTFTSYWMHWVRQAPGQGLEWIGNINPKGGSNIYNEKFQGRVTMTRDTSISTAYMELSRLRSDDTAVYYCARLDYFGDSFDLWGQGTTVTVSS VL: DIQMTQSPSSLSASVGDRVTITCRASQDIENYLNWYQQKPGKAPKLLIYYTSRLQSGVPSRFSGSGSGTDFTLTISSLQPEDFATYFCQQGNTQPPTFGQGTKLEIKRTVAAPSVFIFPPDIQMTQSPSSLSASVGDRVTITCRASQGIRNYLNWYQQKPGKAPKLLIYYASNLEVGVPSRFSGSGSGTDYTLTISSLQPEDFATYYCQQDNRFPYTFGGGTKVEIKR
0.13 nM	0.00012 s⁻¹	920000 M⁻¹ s⁻¹	AB397 (antibody, V domains shown, parent antibody) VH: EVTLRESGPGLVKPTQTLTLTCTLYGFSLSTSDMGVDWIRQPPGKGLEWLAHIWWDDVKRYNPALKSRLTISKDTSKNQVVLKLTSVDPVDTATYYCARTVSSGYIYYAMDYWGQGTLVTVSS VL: DIQMTQSPSSLSASVGDRVTISCRASQDIRNYLNWYQQKPGKAPKLLIFYTSKLHSGVPSRFSGSGSGTDYTLTISSLQPEDIATYYCQQGLTPPLTFGGGTKVEIKR
0.045 nM	2.8e-05 s⁻¹	630000 M⁻¹ s⁻¹	AB398 (antibody, V domains shown, parent antibody) VH: EVQLVQSGAEVKKPGASVKVSCKASGYTFTTYGVSWVRQAPGQGLEWMGEIYPGNYNTYYNEKFRGRVTMTTDTSTSTAYMELRSLRSDDTAVYYCARWRTSYFSDYGYFDYWGQGTTVTVSS VL: DVVMTQSPLSLPVTLGQPASISCRSSQSLVHSHGNTYLHWYQQRPGQSPRLLIYTVSNRFSGVPDRFSGSGSGTDFTLKISRVEAEDVGVYYCSQSTHVPYTFGGGTKVEIKR
0.87 nM	5.9e-05 s⁻¹	68000 M⁻¹ s⁻¹	DVD2683 (bispecific antibody, IgG1, DVD-Ig; wt hIgG1 + kappa constants) VH: EVQLVESGGGLVQPGGSLRLSCAASGFTFSNYGVTWVRQAPGKGLEWVSMIWADGSTHYASSVKGRFTISRDNSKNTLYLQMNSLRAEDTAVYYCAREWQHGPVAYWGQGTLVTVSSGGGGSGGGGSEVTLRESGPGLVKPTQTLTLTCTLYGFSLSTSDMGVDWIRQPPGKGLEWLAHIWWDDVKRYNPALKSRLTISKDTSKNQVVLKLTSVDPVDTATYYCARTVSSGYIYYAMDYWGQGTLVTVSS VL: DIQMTQSPSSLSASVGDRVTITCRASQLVSSAVAWYQQKPGKAPKLLIYWASARHTGVPSRFSGSGSGTDFTLTISSLQPEDFATYYCQQHYKTPFTFGQGTKLEIKRGGSGGGGSGDIQMTQSPSSLSASVGDRVTISCRASQDIRNYLNWYQQKPGKAPKLLIFYTSKLHSGVPSRFSGSGSGTDYTLTISSLQPEDIATYYCQQGLTPPLTFGGGTKVEIKR
1.1 nM	8.6e-05 s⁻¹	79000 M⁻¹ s⁻¹	DVD2733 (bispecific antibody, IgG1, DVD-Ig; wt hIgG1 + kappa constants) VH: EVQLVESGGGLVQPGGSLRLSCAASGFTFSNYGVEWVRQAPGKGLEWVSGIWADGSTHYADTVKSRFTISRDNSKNTLYLQMNSLRAEDTAVYYCAREWQHGPVAYWGQGTLVTVSSGGGGSGGGGSEVTLRESGPGLVKPTQTLTLTCTLYGFSLSTSDMGVDWIRQPPGKGLEWLAHIWWDDVKRYNPALKSRLTISKDTSKNQVVLKLTSVDPVDTATYYCARTVSSGYIYYAMDYWGQGTLVTVSS VL: DIQMTQSPSSLSASVGDRVTITCKASQLVSSAVAWYQQKPGKAPKLLIYWASTLHTGVPSRFSGSGSGTDFTLTISSLQPEDFATYYCQQHYRTPFTFGQGTKLEIKRGGSGGGGSGDIQMTQSPSSLSASVGDRVTISCRASQDIRNYLNWYQQKPGKAPKLLIFYTSKLHSGVPSRFSGSGSGTDYTLTISSLQPEDIATYYCQQGLTPPLTFGGGTKVEIKR
1.2 nM	5.9e-05 s⁻¹	48000 M⁻¹ s⁻¹	DVD2684 (bispecific antibody, IgG1, DVD-Ig; wt hIgG1 + kappa constants) VH: EVQLVESGGGLVQPGGSLRLSCAASGFTFSNYGVTWVRQAPGKGLEWVSMIWADGSTHYASSVKGRFTISRDNSKNTLYLQMNSLRAEDTAVYYCAREWQHGPVAYWGQGTLVTVSSASTKGPEVTLRESGPGLVKPTQTLTLTCTLYGFSLSTSDMGVDWIRQPPGKGLEWLAHIWWDDVKRYNPALKSRLTISKDTSKNQVVLKLTSVDPVDTATYYCARTVSSGYIYYAMDYWGQGTLVTVSS VL: DIQMTQSPSSLSASVGDRVTITCRASQLVSSAVAWYQQKPGKAPKLLIYWASARHTGVPSRFSGSGSGTDFTLTISSLQPEDFATYYCQQHYKTPFTFGQGTKLEIKRTVAAPDIQMTQSPSSLSASVGDRVTISCRASQDIRNYLNWYQQKPGKAPKLLIFYTSKLHSGVPSRFSGSGSGTDYTLTISSLQPEDIATYYCQQGLTPPLTFGGGTKVEIKR
0.47 nM	5e-05 s⁻¹	110000 M⁻¹ s⁻¹	DVD2687 (bispecific antibody, IgG1, DVD-Ig; wt hIgG1 + kappa constants) VH: EVQLVESGGGLVQPGGSLRLSCAASGFTFSNYGVTWVRQAPGKGLEWVSMIWADGSTHYASSVKGRFTISRDNSKNTLYLQMNSLRAEDTAVYYCAREWQHGPVAYWGQGTLVTVSSASTKGPSVFPLAPEVTLRESGPGLVKPTQTLTLTCTLYGFSLSTSDMGVDWIRQPPGKGLEWLAHIWWDDVKRYNPALKSRLTISKDTSKNQVVLKLTSVDPVDTATYYCARTVSSGYIYYAMDYWGQGTLVTVSS VL: DIQMTQSPSSLSASVGDRVTITCRASQLVSSAVAWYQQKPGKAPKLLIYWASARHTGVPSRFSGSGSGTDFTLTISSLQPEDFATYYCQQHYKTPFTFGQGTKLEIKRTVAAPDIQMTQSPSSLSASVGDRVTISCRASQDIRNYLNWYQQKPGKAPKLLIFYTSKLHSGVPSRFSGSGSGTDYTLTISSLQPEDIATYYCQQGLTPPLTFGGGTKVEIKR
0.32 nM	4.4e-05 s⁻¹	140000 M⁻¹ s⁻¹	DVD2686 (bispecific antibody, IgG1, DVD-Ig; wt hIgG1 + kappa constants) VH: EVQLVESGGGLVQPGGSLRLSCAASGFTFSNYGVTWVRQAPGKGLEWVSMIWADGSTHYASSVKGRFTISRDNSKNTLYLQMNSLRAEDTAVYYCAREWQHGPVAYWGQGTLVTVSSASTKGPEVTLRESGPGLVKPTQTLTLTCTLYGFSLSTSDMGVDWIRQPPGKGLEWLAHIWWDDVKRYNPALKSRLTISKDTSKNQVVLKLTSVDPVDTATYYCARTVSSGYIYYAMDYWGQGTLVTVSS VL: DIQMTQSPSSLSASVGDRVTITCRASQLVSSAVAWYQQKPGKAPKLLIYWASARHTGVPSRFSGSGSGTDFTLTISSLQPEDFATYYCQQHYKTPFTFGQGTKLEIKRTVAAPSVFIFPPDIQMTQSPSSLSASVGDRVTISCRASQDIRNYLNWYQQKPGKAPKLLIFYTSKLHSGVPSRFSGSGSGTDYTLTISSLQPEDIATYYCQQGLTPPLTFGGGTKVEIKR
0.82 nM	4.8e-05 s⁻¹	58000 M⁻¹ s⁻¹	DVD2734 (bispecific antibody, IgG1, DVD-Ig; wt hIgG1 + kappa constants) VH: EVQLVESGGGLVQPGGSLRLSCAASGFTFSNYGVEWVRQAPGKGLEWVSGIWADGSTHYADTVKSRFTISRDNSKNTLYLQMNSLRAEDTAVYYCAREWQHGPVAYWGQGTLVTVSSASTKGPEVTLRESGPGLVKPTQTLTLTCTLYGFSLSTSDMGVDWIRQPPGKGLEWLAHIWWDDVKRYNPALKSRLTISKDTSKNQVVLKLTSVDPVDTATYYCARTVSSGYIYYAMDYWGQGTLVTVSS VL: DIQMTQSPSSLSASVGDRVTITCKASQLVSSAVAWYQQKPGKAPKLLIYWASTLHTGVPSRFSGSGSGTDFTLTISSLQPEDFATYYCQQHYRTPFTFGQGTKLEIKRTVAAPDIQMTQSPSSLSASVGDRVTISCRASQDIRNYLNWYQQKPGKAPKLLIFYTSKLHSGVPSRFSGSGSGTDYTLTISSLQPEDIATYYCQQGLTPPLTFGGGTKVEIKR
0.3 nM	4.6e-05 s⁻¹	150000 M⁻¹ s⁻¹	DVD2736 (bispecific antibody, IgG1, DVD-Ig; wt hIgG1 + kappa constants) VH: EVQLVESGGGLVQPGGSLRLSCAASGFTFSNYGVEWVRQAPGKGLEWVSGIWADGSTHYADTVKSRFTISRDNSKNTLYLQMNSLRAEDTAVYYCAREWQHGPVAYWGQGTLVTVSSASTKGPEVTLRESGPGLVKPTQTLTLTCTLYGFSLSTSDMGVDWIRQPPGKGLEWLAHIWWDDVKRYNPALKSRLTISKDTSKNQVVLKLTSVDPVDTATYYCARTVSSGYIYYAMDYWGQGTLVTVSS VL: DIQMTQSPSSLSASVGDRVTITCKASQLVSSAVAWYQQKPGKAPKLLIYWASTLHTGVPSRFSGSGSGTDFTLTISSLQPEDFATYYCQQHYRTPFTFGQGTKLEIKRTVAAPSVFIFPPDIQMTQSPSSLSASVGDRVTISCRASQDIRNYLNWYQQKPGKAPKLLIFYTSKLHSGVPSRFSGSGSGTDYTLTISSLQPEDIATYYCQQGLTPPLTFGGGTKVEIKR
0.019 nM	6.4e-05 s⁻¹	3.4e+06 M⁻¹ s⁻¹	AB399 (antibody, V domains shown, parent antibody) VH: EVQLVQSGAEVKKPGASVKVSCKASGYTFTSYWMHWVRQAPGQGLEWIGNINPKGGSNIYNEKFQGRVTMTRDTSISTAYMELSRLRSDDTAVYYCARLDYFGDSFDLWGQGTTVTVSS VL: DIQMTQSPSSLSASVGDRVTITCRASQGIRNYLNWYQQKPGKAPKLLIYYASNLEVGVPSRFSGSGSGTDYTLTISSLQPEDFATYYCQQDNRFPYTFGGGTKVEIKR
